Source: PMC10325834, “Characteristics of Mycobacterium tuberculosis PtpA interaction and activity on the alpha subunit of human mitochondrial trifunctional protein, a key enzyme of lipid metabolism” (Frontiers in Cellular and Infection Microbiology, 2023)

B1: recombinant alpha subunit of human mitochondrial trifunctional protein, Y271F mutant (enzyme)
chain: not shown
notes: also called hTFPα-Y271F; source: E. coli BL21 (DE3), purified (Ni-NTA, TEV cleavage, SEC)
B2: recombinant alpha subunit of human mitochondrial trifunctional protein, wild type (enzyme)
chain: not shown
notes: also called hTFPα; hTFPα-wt; source: E. coli BL21 (DE3), purified (Ni-NTA, SEC on Superdex 200)

Biological target: the molecule itself
Assay: SEC; Superdex 200 16/60 preparative grade; 50 mM Tris-HCl pH 8.0, 100 mM NaCl, 5% glycerol, 0.1% Tween 20; apparent molecular weight from a calibration curve

Protein | stoichiometry N
B1 | 2
B2 | 2
